Paper PMC12633535 (bioRxiv, 2025)

T1: GST-ICAT (a.a. Met1-Gln81) (UniProt Q9NSA3 1-81)
T1 sequence (looked up): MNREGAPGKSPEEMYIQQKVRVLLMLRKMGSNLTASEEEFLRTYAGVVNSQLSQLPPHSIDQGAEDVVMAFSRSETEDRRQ

T2: GST-tagged TCF4 fragment (a.a. 1–53) (UniProt Q9NQB0 1-53)
T2 sequence (looked up): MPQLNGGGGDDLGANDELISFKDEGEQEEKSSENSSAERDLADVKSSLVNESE

B1: full-length β-catenin, untagged, wild type (natural protein, human, UniProt P35222 1-781, looked up)
chain: MATQADLMELDMAMEPDRKAAVSHWQQQSYLDSGIHSGATTTAPSLSGKGNPEEEDVDTSQVLYEWEQGFSQSFTQEQVADIDGQYAMTRAQRVRAAMFPETLDEGMQIPSTQFDAAHPTNVQRLAEPSQMLKHAVVNLINYQDDAELATRAIPELTKLLNDEDQVVVNKAAVMVHQLSKKEASRHAIMRSPQMVSAIVRTMQNTNDVETARCTAGTLHNLSHHREGLLAIFKSGGIPALVKMLGSPVDSVLFYAITTLHNLLLHQEGAKMAVRLAGGLQKMVALLNKTNVKFLAITTDCLQILAYGNQESKLIILASGGPQALVNIMRTYTYEKLLWTTSRVLKVLSVCSSNKPAIVEAGGMQALGLHLTDPSQRLVQNCLWTLRNLSDAATKQEGMEGLLGTLVQLLGSDDINVVTCAAGILSNLTCNNYKNKMMVCQVGGIEALVRTVLRAGDREDITEPAICALRHLTSRHQEAEMAQNAVRLHYGLPVVVKLLHPPSHWPLIKATVGLIRNLALCPANHAPLREQGAIPRLVQLLVRAHQDTQRRTSMGGTQQQFVEGVRMEEIVEGCTGALHILARDVHNRIVIRGLNTIPLFVQLLYSPIENIQRVAAGVLCELAQDKEAAEAIEAEGATAPLTELLHSRNEGVATYAAAVLFRMSEDKPQDYKKRLSVELTSSLFRTEPMAWNETADLGLDIGAQGEPLGYRQDDPSYRSFHSGGYGQDALGMDPMMEHEMGGHHPGADYPVDGLPDLGHAQDLMDGLPPGDSNQLAWFDTDL
B2: GST-tagged AXIN1 CBD peptide V475I/L479W (a.a. 435-498) (domain or fragment, human, UniProt O15169-1 435-498, looked up)
chain: CHKLPPAPAWHHFPPRCVDMGCAGLRDAHEENPESILDEHIQRVWRTPGRQSPGPGHRSPDSGH

How the values were obtained:
Test in all cases: BLI
[1] = molecular target: B2
[2] = molecular target: T1, GST-ICAT (a.a. Met1-Gln81)
[3] = molecular target: T2, GST-tagged TCF4 fragment (a.a. 1–53)
[4] = molecular target: B1

| fold reduction of affinity against wild-type β-catenin [3] [fold] | Kd [4] [nM] | Binder | also measured |
| --- | --- | --- | --- |
|  |  | B1 | fold decrease of koff against the wild-type CBD peptide [1]: ~20 fold; half-life of the complex [1]: ~1 min |
| ~10 |  | β-catenin D624K/E626K/E628K (purified, full length, untagged) (natural protein) MATQADLMELDMAMEPDRKAAVSHWQQQSYLDSGIHSGATTTAPSLSGKGNPEEEDVDTSQVLYEWEQGFSQSFTQEQVADIDGQYAMTRAQRVRAAMFPETLDEGMQIPSTQFDAAHPTNVQRLAEPSQMLKHAVVNLINYQDDAELATRAIPELTKLLNDEDQVVVNKAAVMVHQLSKKEASRHAIMRSPQMVSAIVRTMQNTNDVETARCTAGTLHNLSHHREGLLAIFKSGGIPALVKMLGSPVDSVLFYAITTLHNLLLHQEGAKMAVRLAGGLQKMVALLNKTNVKFLAITTDCLQILAYGNQESKLIILASGGPQALVNIMRTYTYEKLLWTTSRVLKVLSVCSSNKPAIVEAGGMQALGLHLTDPSQRLVQNCLWTLRNLSDAATKQEGMEGLLGTLVQLLGSDDINVVTCAAGILSNLTCNNYKNKMMVCQVGGIEALVRTVLRAGDREDITEPAICALRHLTSRHQEAEMAQNAVRLHYGLPVVVKLLHPPSHWPLIKATVGLIRNLALCPANHAPLREQGAIPRLVQLLVRAHQDTQRRTSMGGTQQQFVEGVRMEEIVEGCTGALHILARDVHNRIVIRGLNTIPLFVQLLYSPIENIQRVAAGVLCELAQKKKAAKAIEAEGATAPLTELLHSRNEGVATYAAAVLFRMSEDKPQDYKKRLSVELTSSLFRTEPMAWNETADLGLDIGAQGEPLGYRQDDPSYRSFHSGGYGQDALGMDPMMEHEMGGHHPGADYPVDGLPDLGHAQDLMDGLPPGDSNQLAWFDTDL | fold reduction of affinity against wild-type β-catenin [2]: ~10 fold |
|  | 1000 | GST-tagged AXIN1 CBD peptide, wild type (a.a. Cys435-His498) (domain or fragment, human, UniProt O15169-1 435-498, looked up) CHKLPPAPAWHHFPPRCVDMGCAGLRDAHEENPESILDEHVQRVLRTPGRQSPGPGHRSPDSGH |  |
| > 10 |  | full-length β-catenin C466Y/A467T, untagged (natural protein, human, UniProt P35222 1-781, looked up) MATQADLMELDMAMEPDRKAAVSHWQQQSYLDSGIHSGATTTAPSLSGKGNPEEEDVDTSQVLYEWEQGFSQSFTQEQVADIDGQYAMTRAQRVRAAMFPETLDEGMQIPSTQFDAAHPTNVQRLAEPSQMLKHAVVNLINYQDDAELATRAIPELTKLLNDEDQVVVNKAAVMVHQLSKKEASRHAIMRSPQMVSAIVRTMQNTNDVETARCTAGTLHNLSHHREGLLAIFKSGGIPALVKMLGSPVDSVLFYAITTLHNLLLHQEGAKMAVRLAGGLQKMVALLNKTNVKFLAITTDCLQILAYGNQESKLIILASGGPQALVNIMRTYTYEKLLWTTSRVLKVLSVCSSNKPAIVEAGGMQALGLHLTDPSQRLVQNCLWTLRNLSDAATKQEGMEGLLGTLVQLLGSDDINVVTCAAGILSNLTCNNYKNKMMVCQVGGIEALVRTVLRAGDREDITEPAIYTLRHLTSRHQEAEMAQNAVRLHYGLPVVVKLLHPPSHWPLIKATVGLIRNLALCPANHAPLREQGAIPRLVQLLVRAHQDTQRRTSMGGTQQQFVEGVRMEEIVEGCTGALHILARDVHNRIVIRGLNTIPLFVQLLYSPIENIQRVAAGVLCELAQDKEAAEAIEAEGATAPLTELLHSRNEGVATYAAAVLFRMSEDKPQDYKKRLSVELTSSLFRTEPMAWNETADLGLDIGAQGEPLGYRQDDPSYRSFHSGGYGQDALGMDPMMEHEMGGHHPGADYPVDGLPDLGHAQDLMDGLPPGDSNQLAWFDTDL |  |
| > 10 |  | full-length β-catenin R469H, untagged (natural protein, human, UniProt P35222 1-781, looked up) MATQADLMELDMAMEPDRKAAVSHWQQQSYLDSGIHSGATTTAPSLSGKGNPEEEDVDTSQVLYEWEQGFSQSFTQEQVADIDGQYAMTRAQRVRAAMFPETLDEGMQIPSTQFDAAHPTNVQRLAEPSQMLKHAVVNLINYQDDAELATRAIPELTKLLNDEDQVVVNKAAVMVHQLSKKEASRHAIMRSPQMVSAIVRTMQNTNDVETARCTAGTLHNLSHHREGLLAIFKSGGIPALVKMLGSPVDSVLFYAITTLHNLLLHQEGAKMAVRLAGGLQKMVALLNKTNVKFLAITTDCLQILAYGNQESKLIILASGGPQALVNIMRTYTYEKLLWTTSRVLKVLSVCSSNKPAIVEAGGMQALGLHLTDPSQRLVQNCLWTLRNLSDAATKQEGMEGLLGTLVQLLGSDDINVVTCAAGILSNLTCNNYKNKMMVCQVGGIEALVRTVLRAGDREDITEPAICALHHLTSRHQEAEMAQNAVRLHYGLPVVVKLLHPPSHWPLIKATVGLIRNLALCPANHAPLREQGAIPRLVQLLVRAHQDTQRRTSMGGTQQQFVEGVRMEEIVEGCTGALHILARDVHNRIVIRGLNTIPLFVQLLYSPIENIQRVAAGVLCELAQDKEAAEAIEAEGATAPLTELLHSRNEGVATYAAAVLFRMSEDKPQDYKKRLSVELTSSLFRTEPMAWNETADLGLDIGAQGEPLGYRQDDPSYRSFHSGGYGQDALGMDPMMEHEMGGHHPGADYPVDGLPDLGHAQDLMDGLPPGDSNQLAWFDTDL |  |
|  | ~450 | GST-tagged AXIN1 CBD peptide V475I (a.a. 435-498) (domain or fragment, human, UniProt O15169-1 435-498, looked up) CHKLPPAPAWHHFPPRCVDMGCAGLRDAHEENPESILDEHIQRVLRTPGRQSPGPGHRSPDSGH |  |
| ~7 |  | purified β-catenin E571K (full length, untagged) (natural protein, human, UniProt P35222 1-781, looked up) MATQADLMELDMAMEPDRKAAVSHWQQQSYLDSGIHSGATTTAPSLSGKGNPEEEDVDTSQVLYEWEQGFSQSFTQEQVADIDGQYAMTRAQRVRAAMFPETLDEGMQIPSTQFDAAHPTNVQRLAEPSQMLKHAVVNLINYQDDAELATRAIPELTKLLNDEDQVVVNKAAVMVHQLSKKEASRHAIMRSPQMVSAIVRTMQNTNDVETARCTAGTLHNLSHHREGLLAIFKSGGIPALVKMLGSPVDSVLFYAITTLHNLLLHQEGAKMAVRLAGGLQKMVALLNKTNVKFLAITTDCLQILAYGNQESKLIILASGGPQALVNIMRTYTYEKLLWTTSRVLKVLSVCSSNKPAIVEAGGMQALGLHLTDPSQRLVQNCLWTLRNLSDAATKQEGMEGLLGTLVQLLGSDDINVVTCAAGILSNLTCNNYKNKMMVCQVGGIEALVRTVLRAGDREDITEPAICALRHLTSRHQEAEMAQNAVRLHYGLPVVVKLLHPPSHWPLIKATVGLIRNLALCPANHAPLREQGAIPRLVQLLVRAHQDTQRRTSMGGTQQQFVEGVRMEEIVKGCTGALHILARDVHNRIVIRGLNTIPLFVQLLYSPIENIQRVAAGVLCELAQDKEAAEAIEAEGATAPLTELLHSRNEGVATYAAAVLFRMSEDKPQDYKKRLSVELTSSLFRTEPMAWNETADLGLDIGAQGEPLGYRQDDPSYRSFHSGGYGQDALGMDPMMEHEMGGHHPGADYPVDGLPDLGHAQDLMDGLPPGDSNQLAWFDTDL |  |
|  | 40 | B2 |  |
